The assay concerns the target Bmp8. Put plainly: SEC. Background: SEC sorts molecules by how far they enter the pores of the column.

In general, stoichiometry N refers to the number of molecules, sites or subunits per partner or assembly.

Bmp8 (enzyme) came in with a stoichiometry N of 2.

The values above are taken from article PMC6872904.
